Experimental findings from the supplement of paper PMC9112550, “Optimization of the antimicrobial peptide Bac7 by deep mutational scanning” (BMC Biology, 2022) are described below.

The data set deals with Escherichia coli TOP10. The data set is described as follows: shrunken log2 fold change of peptide-encoding DNA abundance (4.5 h post-induction vs induction); higher = less antimicrobial activity (less host growth inhibition). To be noted: time post-induction: 4.5 h; library: site-saturation at positions 5, 18, 19, 20.
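Also: peptides expressed intracellularly from a pBAD plasmid library in pooled LB shake-flask culture, induced with 0.3% L-arabinose, DNA abundance read by NGS, three biological replicates, DESeq2 with apeglm shrinkage.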

RRIRYRPPRLPRPRPRPCVLPRP: the “shrunken log2 fold change” value is -0.00875.

As to RRIRKRPPRLPRPRPRPPWWPRP, the “shrunken log2 fold change” value is 0.777.

Consider RRIRERPPRLPRPRPRPSWKPRP, for which the “shrunken log2 fold change” value is -0.345.

As to RRIRQRPPRLPRPRPRPLAIPRP, the “shrunken log2 fold change” value was -0.122.

Consider RRIRRRPPRLPRPRPRPMHTPRP, for which the “shrunken log2 fold change” value turned out to be 0.322.

As to RRIRKRPPRLPRPRPRPNVHPRP, the “shrunken log2 fold change” value was 0.273.

Take RRIRNRPPRLPRPRPRPWFFPRP: the “shrunken log2 fold change” value was -0.0137.

On to RRIRARPPRLPRPRPRPDFVPRP, for which the “shrunken log2 fold change” value was determined as 0.205.

Regarding RRIRIRPPRLPRPRPRPMVLPRP, the “shrunken log2 fold change” value was -0.071.

Take RRIRMRPPRLPRPRPRPMIMPRP: the “shrunken log2 fold change” value stood at 0.421.

RRIRYRPPRLPRPRPRPLFKPRP: the “shrunken log2 fold change” value is -0.646.

In the case of RRIRERPPRLPRPRPRPAQNPRP, the “shrunken log2 fold change” value came out at 0.269.

Turning to RRIRHRPPRLPRPRPRPCNCPRP, the “shrunken log2 fold change” value is 0.0668.

Consider RRIRTRPPRLPRPRPRPMWKPRP, for which the “shrunken log2 fold change” value amounted to 0.00922.

For the sequence RRIRIRPPRLPRPRPRPSYGPRP, the “shrunken log2 fold change” value was -0.53.

For the sequence RRIRNRPPRLPRPRPRPAPGPRP, the “shrunken log2 fold change” value was found to be 0.164.

On to RRIRLRPPRLPRPRPRPYEQPRP, for which the “shrunken log2 fold change” value was -0.104.

For RRIRWRPPRLPRPRPRPTPNPRP, the “shrunken log2 fold change” value worked out at 0.519.

Turning to RRIRWRPPRLPRPRPRPSHRPRP, the “shrunken log2 fold change” value is -0.271.

Regarding RRIRERPPRLPRPRPRPMVGPRP, the “shrunken log2 fold change” value is 0.17.

RRIRIRPPRLPRPRPRPQQHPRP: the “shrunken log2 fold change” value is -0.551.

On to RRIRLRPPRLPRPRPRPTECPRP, for which the “shrunken log2 fold change” value was -0.243.

With RRIRQRPPRLPRPRPRPQLGPRP, the “shrunken log2 fold change” value is -0.194.

For RRIRQRPPRLPRPRPRPVFHPRP, the “shrunken log2 fold change” value is -0.107.

In the case of RRIRGRPPRLPRPRPRPEPCPRP, the “shrunken log2 fold change” value is 0.795.

Turning to RRIRSRPPRLPRPRPRPQNDPRP, the “shrunken log2 fold change” value is -0.13.

In the case of RRIRARPPRLPRPRPRPEACPRP, the “shrunken log2 fold change” value was 1.24.

In the case of RRIRRRPPRLPRPRPRPKLTPRP, the “shrunken log2 fold change” value was 0.0538.

In the case of RRIRGRPPRLPRPRPRPQMRPRP, the “shrunken log2 fold change” value was 0.899.

With RRIRGRPPRLPRPRPRPGFHPRP, the “shrunken log2 fold change” value was 0.296.

Consider RRIRVRPPRLPRPRPRPLFHPRP, for which the “shrunken log2 fold change” value was -0.311.

As to RRIRSRPPRLPRPRPRPFHKPRP, the “shrunken log2 fold change” value was -0.0363.

On to RRIRSRPPRLPRPRPRPAFNPRP, for which the “shrunken log2 fold change” value amounted to 0.0949.

Take RRIRFRPPRLPRPRPRPNCWPRP: the “shrunken log2 fold change” value is -0.358.

Consider RRIRKRPPRLPRPRPRPEFPPRP, for which the “shrunken log2 fold change” value worked out at 0.0804.

With RRIRHRPPRLPRPRPRPIKNPRP, the “shrunken log2 fold change” value was -0.563.

With RRIRYRPPRLPRPRPRPNSPPRP, the “shrunken log2 fold change” value was -0.21.

Consider RRIRSRPPRLPRPRPRPLYYPRP, for which the “shrunken log2 fold change” value is -0.547.

For the sequence RRIRYRPPRLPRPRPRPENSPRP, the “shrunken log2 fold change” value is -0.0207.

For RRIRGRPPRLPRPRPRPQWCPRP, the “shrunken log2 fold change” value was 0.216.

Turning to RRIRFRPPRLPRPRPRPECEPRP, the “shrunken log2 fold change” value is 0.639.

On to RRIRWRPPRLPRPRPRPFCCPRP, for which the “shrunken log2 fold change” value is -0.163.

RRIRARPPRLPRPRPRPHNTPRP: the “shrunken log2 fold change” value was -0.235.

Take RRIRHRPPRLPRPRPRPPPWPRP: the “shrunken log2 fold change” value is 0.446.

Turning to RRIRTRPPRLPRPRPRPDPRPRP, the “shrunken log2 fold change” value amounted to 0.0663.

As to RRIRRRPPRLPRPRPRPQYTPRP, the “shrunken log2 fold change” value is -0.221.

Take RRIRYRPPRLPRPRPRPHKMPRP: the “shrunken log2 fold change” value was -0.153.

With RRIRSRPPRLPRPRPRPYGKPRP, the “shrunken log2 fold change” value is -0.0603.

For RRIRIRPPRLPRPRPRPFSWPRP, the “shrunken log2 fold change” value is 0.0705.

With RRIRHRPPRLPRPRPRPCVHPRP, the “shrunken log2 fold change” value is -0.00151.

On to RRIRQRPPRLPRPRPRPSVCPRP, for which the “shrunken log2 fold change” value is -0.14.

As for RRIRNRPPRLPRPRPRPPAQPRP, the “shrunken log2 fold change” value was 0.314.

For RRIRHRPPRLPRPRPRPLYVPRP, the “shrunken log2 fold change” value was -0.272.

Turning to RRIRIRPPRLPRPRPRPFYMPRP, the “shrunken log2 fold change” value was -0.235.

Turning to RRIRSRPPRLPRPRPRPGAEPRP, the “shrunken log2 fold change” value came out at 0.606.

Consider RRIRHRPPRLPRPRPRPQYKPRP, for which the “shrunken log2 fold change” value is -0.252.

As for RRIRERPPRLPRPRPRPRERPRP, the “shrunken log2 fold change” value turned out to be 0.389.

With RRIRIRPPRLPRPRPRPKKPPRP, the “shrunken log2 fold change” value was 0.0487.

RRIRTRPPRLPRPRPRPKQFPRP: the “shrunken log2 fold change” value is -0.103.

With RRIRNRPPRLPRPRPRPTVCPRP, the “shrunken log2 fold change” value is -0.0905.

For RRIRCRPPRLPRPRPRPFFKPRP, the “shrunken log2 fold change” value is -0.197.

RRIRYRPPRLPRPRPRPYLGPRP: the “shrunken log2 fold change” value is -0.261.

In the case of RRIRQRPPRLPRPRPRPTAYPRP, the “shrunken log2 fold change” value was 0.14.

Turning to RRIRARPPRLPRPRPRPWRIPRP, the “shrunken log2 fold change” value is -0.0489.

In the case of RRIRSRPPRLPRPRPRPKRVPRP, the “shrunken log2 fold change” value is 0.0219.

In the case of RRIRQRPPRLPRPRPRPREDPRP, the “shrunken log2 fold change” value turned out to be 0.242.

As to RRIRQRPPRLPRPRPRPYHPPRP, the “shrunken log2 fold change” value was -0.531.

As to RRIRIRPPRLPRPRPRPWQSPRP, the “shrunken log2 fold change” value was -0.0531.

With RRIRKRPPRLPRPRPRPDKRPRP, the “shrunken log2 fold change” value is -0.0063.

In the case of RRIRFRPPRLPRPRPRPAIKPRP, the “shrunken log2 fold change” value is -0.328.

Turning to RRIRHRPPRLPRPRPRPFAHPRP, the “shrunken log2 fold change” value stood at 0.186.

Consider RRIRRRPPRLPRPRPRPNRGPRP, for which the “shrunken log2 fold change” value was -0.0468.

As for RRIRSRPPRLPRPRPRPTIKPRP, the “shrunken log2 fold change” value is -0.29.

As to RRIRWRPPRLPRPRPRPCKQPRP, the “shrunken log2 fold change” value is -0.156.

RRIRQRPPRLPRPRPRPIRPPRP: the “shrunken log2 fold change” value worked out at 0.0227.

As for RRIRHRPPRLPRPRPRPSQMPRP, the “shrunken log2 fold change” value amounted to 0.0205.

Take RRIRLRPPRLPRPRPRPDKAPRP: the “shrunken log2 fold change” value was found to be 0.0248.

On to RRIRHRPPRLPRPRPRPCFEPRP, for which the “shrunken log2 fold change” value was -0.114.

Regarding RRIRSRPPRLPRPRPRPTNMPRP, the “shrunken log2 fold change” value was -0.465.

Regarding RRIRRRPPRLPRPRPRPRDCPRP, the “shrunken log2 fold change” value was found to be 0.177.

As to RRIRERPPRLPRPRPRPRWNPRP, the “shrunken log2 fold change” value was -0.0995.

For RRIRFRPPRLPRPRPRPFFNPRP, the “shrunken log2 fold change” value was -0.313.

On to RRIRHRPPRLPRPRPRPRWCPRP, for which the “shrunken log2 fold change” value is 0.0475.

With RRIRTRPPRLPRPRPRPYVTPRP, the “shrunken log2 fold change” value was -0.203.

On to RRIRLRPPRLPRPRPRPCANPRP, for which the “shrunken log2 fold change” value is -0.212.

For the sequence RRIRFRPPRLPRPRPRPREGPRP, the “shrunken log2 fold change” value was 0.285.

For the sequence RRIRIRPPRLPRPRPRPHTPPRP, the “shrunken log2 fold change” value is -0.721.

Take RRIRYRPPRLPRPRPRPAFMPRP: the “shrunken log2 fold change” value is -0.658.

For RRIRWRPPRLPRPRPRPKFTPRP, the “shrunken log2 fold change” value is -0.119.

As for RRIRDRPPRLPRPRPRPAITPRP, the “shrunken log2 fold change” value amounted to 0.284.

For RRIRMRPPRLPRPRPRPIRYPRP, the “shrunken log2 fold change” value worked out at 0.0982.

For the sequence RRIRGRPPRLPRPRPRPFQFPRP, the “shrunken log2 fold change” value was determined as 0.00963.

Regarding RRIRDRPPRLPRPRPRPEFKPRP, the “shrunken log2 fold change” value was -0.0319.

For the sequence RRIRPRPPRLPRPRPRPHSNPRP, the “shrunken log2 fold change” value is -0.316.

RRIRERPPRLPRPRPRPHQHPRP: the “shrunken log2 fold change” value was -0.449.

As for RRIRVRPPRLPRPRPRPGLVPRP, the “shrunken log2 fold change” value worked out at 0.807.

In the case of RRIRTRPPRLPRPRPRPYWDPRP, the “shrunken log2 fold change” value is -0.0758.

RRIRRRPPRLPRPRPRPAVMPRP: the “shrunken log2 fold change” value was 0.0975.

Take RRIRGRPPRLPRPRPRPKGTPRP: the “shrunken log2 fold change” value is 0.294.

Regarding RRIRGRPPRLPRPRPRPIRNPRP, the “shrunken log2 fold change” value is -0.0262.

Take RRIRWRPPRLPRPRPRPSHFPRP: the “shrunken log2 fold change” value is -0.151.

For RRIRWRPPRLPRPRPRPIVAPRP, the “shrunken log2 fold change” value was determined as 0.541.

Turning to RRIRKRPPRLPRPRPRPEHDPRP, the “shrunken log2 fold change” value turned out to be 0.169.

With RRIRMRPPRLPRPRPRPMNWPRP, the “shrunken log2 fold change” value is -0.117.

Take RRIRWRPPRLPRPRPRPNTTPRP: the “shrunken log2 fold change” value was -0.418.

For RRIRSRPPRLPRPRPRPKNTPRP, the “shrunken log2 fold change” value is -0.356.

In the case of RRIRYRPPRLPRPRPRPFTVPRP, the “shrunken log2 fold change” value is -0.177.

As for RRIRFRPPRLPRPRPRPGEPPRP, the “shrunken log2 fold change” value was found to be 0.118.

Regarding RRIRLRPPRLPRPRPRPRCHPRP, the “shrunken log2 fold change” value is -0.277.

With RRIRMRPPRLPRPRPRPEVVPRP, the “shrunken log2 fold change” value was 2.97.

For the sequence RRIRVRPPRLPRPRPRPDECPRP, the “shrunken log2 fold change” value is -0.00624.

Turning to RRIRIRPPRLPRPRPRPGRRPRP, the “shrunken log2 fold change” value was determined as 0.18.

For the sequence RRIRWRPPRLPRPRPRPNHYPRP, the “shrunken log2 fold change” value is -0.605.

In the case of RRIRNRPPRLPRPRPRPTSDPRP, the “shrunken log2 fold change” value is -0.148.

Consider RRIRLRPPRLPRPRPRPPADPRP, for which the “shrunken log2 fold change” value stood at 0.797.

Regarding RRIRNRPPRLPRPRPRPAFCPRP, the “shrunken log2 fold change” value stood at 0.0699.

As for RRIRLRPPRLPRPRPRPYQKPRP, the “shrunken log2 fold change” value turned out to be 0.00934.

On to RRIRMRPPRLPRPRPRPREWPRP, for which the “shrunken log2 fold change” value is -0.0018.

In the case of RRIRWRPPRLPRPRPRPYFAPRP, the “shrunken log2 fold change” value was -0.216.

RRIRLRPPRLPRPRPRPESYPRP: the “shrunken log2 fold change” value is -0.266.

Regarding RRIRYRPPRLPRPRPRPGSHPRP, the “shrunken log2 fold change” value is -1.48.

Turning to RRIRLRPPRLPRPRPRPLEMPRP, the “shrunken log2 fold change” value was 0.203.

RRIRVRPPRLPRPRPRPQWTPRP: the “shrunken log2 fold change” value was -0.17.

For RRIRSRPPRLPRPRPRPAHMPRP, the “shrunken log2 fold change” value is -0.138.

For the sequence RRIRYRPPRLPRPRPRPCVIPRP, the “shrunken log2 fold change” value is 0.0735.
